# Results reported in the supplement of paper PMC10567573.
# B1: INTS3 (parent)
# chain: KKREFRFHPIKETVVEEPVDITPY
# Variants of: B1
# Experiment: protein stability index of a GFP-peptide fusion (GPS, HEK-293T) (PSI 1-6); higher = more stable
# Settings: c terminus: a fixed tail appended
# 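Note: lentivirally expressed fusions sorted by FACS into six bins by GFP to DsRed ratio, PSI derived from sequencing read proportions per bin multiplied by bin number.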
row,Variant,protein stability index
1,E4I,2.05
2,E4F,1.94
3,E4R,2.86
4,E4K,2.79
5,E4M,2.04
6,E4Q,2.36
7,E4P,2.62
8,E4W,1.41
9,E4H,1.9
10,E4D,2.06
11,E4S,1.33
12,E4N,1.48
13,E4G,1.54
14,E4V,1.27
15,E4Y,1.81
16,E4T,2.07
17,E4L,1.79
18,E12Q,2.48
19,E12H,2.17
20,E12F,2.96
21,E12P,1.92
22,E12R,1.94
23,E12N,1.86
24,E12D,1.87

row,Variant,protein stability index
1,E12K,2.19
2,E12T,1.39
3,E12W,2.98
4,E12Y,2
5,E12G,2.93
6,E12I,2.61
7,E12M,2.43
8,E12A,1.97
9,E12S,1.56
10,E12C,2.05
11,E12L,3.92
12,H8Q,3.45
13,H8M,3.79
14,H8K,4.01
15,H8P,4.58
16,H8D,4.47
17,H8W,3.41
18,H8R,4.07
19,H8E,3.55
20,H8T,3.34
21,H8N,3.96
22,H8C,3.25
23,H8L,3.97
24,H8I,2.8

row,Variant,protein stability index
1,H8F,3.49
2,H8A,3.27
3,H8G,3.93
4,H8V,2.49
5,H8S,3.54
6,H8Y,3.43
7,P18F,2.72
8,P18T,1.36
9,P18W,2.29
10,P18S,1.79
11,P18G,1.79
12,P18D,2.12
13,P18E,2.05
14,P18A,1.87
15,P18I,1.64
16,P18M,1.99
17,P18C,1.86
18,P18V,1.83
19,P18R,2.78
20,P18Y,3.25
21,P18H,1.74
22,P18N,2.26
23,P18Q,2.06
24,P18L,1.85

row,Variant,protein stability index
1,P18K,2.62
2,T13I,1.58
3,T13W,2.56
4,T13E,2.39
5,T13G,2.33
6,T13K,1.96
7,T13F,1.54
8,T13Y,3.62
9,T13C,2.38
10,T13A,1.92
11,T13H,2.06
12,T13V,2.12
13,T13P,1.75
14,T13R,1.79
15,T13D,2.19
16,T13S,1.55
17,T13N,1.63
18,T13M,1.57
19,T13Q,1.96
20,T13L,1.43
21,D20C,1.61
22,D20S,1.04
23,D20R,2.22
24,D20G,2.15

row,Variant,protein stability index
1,D20P,1.79
2,D20F,2.48
3,D20L,1.56
4,D20W,1.6
5,D20N,2.2
6,D20K,1.05
7,D20V,1.65
8,D20T,1.67
9,D20Q,2.02
10,D20I,1.7
11,D20Y,2.16
12,D20H,2.25
13,D20M,1.96
14,D20E,2.35
15,D20A,1.26
16,K11T,1.97
17,K11S,2.31
18,K11M,2.64
19,K11R,1.88
20,K11L,2.72
21,K11H,2.04
22,K11P,2.33
23,K11E,2.5
24,K11N,1.71

row,Variant,protein stability index
1,K11I,1.85
2,K11C,2.15
3,K11Q,1.82
4,K11F,2.56
5,K11A,1.82
6,K11G,2.04
7,K11W,1.61
8,K11V,2.36
9,K11D,2.72
10,K11Y,2.7
11,F7P,4.58
12,F7S,4.74
13,F7Q,4.24
14,F7I,4.23
15,F7M,4.4
16,F7R,4.6
17,F7H,4.63
18,F7C,4.26
19,F7G,4.71
20,F7L,4.21
21,F7N,4.91
22,F7D,4.43
23,F7T,4.79
24,F7K,4.39

row,Variant,protein stability index
1,F7A,4.76
2,F7E,4.62
3,F7Y,2.84
4,F7W,3.25
5,F7V,4.65
6,V19Y,2.28
7,V19R,2.37
8,V19T,1.88
9,V19E,2.28
10,V19C,2.01
11,V19W,1.38
12,V19N,2.02
13,V19H,1.76
14,V19K,1.88
15,V19A,2.67
16,V19D,2.13
17,V19P,2.06
18,V19M,2.23
19,V19I,1.51
20,V19S,2.25
21,V19G,1.98
22,V19F,1.77
23,V19Q,1.8
24,V19L,1.7

row,Variant,protein stability index
1,F5T,4.52
2,F5L,4.01
3,F5I,4.06
4,F5N,4.53
5,F5P,4.18
6,F5E,4.8
7,F5G,4.34
8,F5R,4.56
9,F5M,4.36
10,F5C,4.39
11,F5W,2.56
12,F5K,4.75
13,F5Q,4.37
14,F5V,4.63
15,F5Y,3.92
16,F5D,4.4
17,F5H,4.36
18,F5A,4.36
19,F5S,4.45
20,E17W,2.46
21,E17F,1.89
22,E17A,1.79
23,E17L,2.15
24,E17M,1.95

row,Variant,protein stability index
1,E17G,2.26
2,E17K,1.43
3,E17D,1.79
4,E17T,2.13
5,E17S,2.24
6,E17H,1.62
7,E17V,2.02
8,E17P,1.59
9,E17N,2.19
10,E17I,2.6
11,E17C,1.97
12,E17R,2.32
13,E17Q,2.42
14,E17Y,2.06
15,V15H,1.82
16,V15T,1.75
17,V15N,1.75
18,V15A,2.01
19,V15Q,2
20,V15K,1.39
21,V15E,2.41
22,V15Y,1.84
23,V15P,2.13
24,V15M,2.13

row,Variant,protein stability index
1,V15R,1.98
2,V15F,1.91
3,V15I,1.67
4,V15G,1.49
5,V15S,1.58
6,V15D,2.35
7,V15L,1.73
8,V15C,1.68
9,V15W,1.53
10,R6P,4.38
11,R6S,4.31
12,R6Q,4.23
13,R6G,4.57
14,R6Y,3.66
15,R6W,2.55
16,R6L,4.15
17,R6K,4.23
18,R6M,4.02
19,R6T,4.38
20,R6H,4.52
21,R6N,4.25
22,R6D,4.24
23,R6E,4.48
24,R6F,2.57

row,Variant,protein stability index
1,R6A,3.97
2,R6I,4.01
3,R6V,3.49
4,R6C,3.87
5,P9T,2.42
6,P9H,2.83
7,P9N,3.02
8,P9R,2.3
9,P9Y,1.99
10,P9I,2.18
11,P9F,2.17
12,P9Q,2.17
13,P9G,2.5
14,P9V,2.63
15,P9C,2.03
16,P9D,3.8
17,P9S,2.04
18,P9K,2.59
19,P9M,2.17
20,P9L,1.9
21,P9W,1.81
22,P9E,3.18
23,P9A,2.5
24,I10T,2.27

row,Variant,protein stability index
1,I10W,3.25
2,I10F,2.69
3,I10R,1.41
4,I10L,1.75
5,I10Y,4.54
6,I10N,2.84
7,I10K,2.02
8,I10A,2.08
9,I10C,1.51
10,I10G,2.3
11,I10D,2.28
12,I10V,1.98
13,I10Q,1.83
14,I10M,1.87
15,I10H,2.09
16,I10E,2.4
17,I10P,1.9
18,I10S,1.64
19,I21F,1.92
20,I21R,1.59
21,I21L,2.01
22,I21E,2.37
23,I21D,2.37
24,I21M,1.7

row,Variant,protein stability index
1,I21Q,2.43
2,I21H,1.59
3,I21G,1.49
4,I21K,2.02
5,I21C,2.01
6,I21P,2.5
7,I21N,2
8,I21A,1.76
9,E16G,2.47
10,E16R,2.73
11,E16M,1.41
12,E16W,2.1
13,E16S,1.82
14,E16K,2.5
15,E16C,2.46
16,E16D,2.18
17,E16A,1.73
18,E16V,1.95
19,E16T,2.16
20,E16I,2.29
21,E16H,1.83
22,E16F,2.4
23,E16N,2.39
24,E16Q,1.86

row,Variant,protein stability index
1,E16Y,2.36
2,E16L,1.88
3,E16P,2.54
4,V14Y,1.89
5,V14K,1.53
6,V14S,3.05
7,V14T,1.42
8,V14M,2.19
9,V14P,1.64
10,V14L,1.82
11,V14I,1.91
12,V14G,1.63
13,V14C,1.98
14,V14R,1.35
15,V14Q,3.65
16,V14W,1.91
17,V14H,1.89
18,V14E,1.95
19,V14A,1.52
20,V14N,1.99
21,V14D,2.58
22,V14F,1.71
